Test results from article PMC2696313.

Biological target: Δ41-52 hPRL (human prolactin with residues 41-52 removed) (human) (UniProt P01236)
Assay: mass spectrometry

stoichiometry N: 2
Substance: Δ41-52 hPRL (human prolactin with residues 41-52 removed) (from UniProt P01236 29-227) (ligand)
